Read-outs that look alike come from different tables or passages of the source.
Legend:
[1] = biological target: T1, recombinant human TFPI (tissue factor pathway inhibitor) (human, UniProt P10646 29-304); experiment: cell-based or functional assay
[2] = biological target: T1, recombinant human TFPI (tissue factor …); experiment: cell-based or functional assay; remark: listed apart in the source
[3] = biological target: T1, recombinant human TFPI (tissue factor …); experiment: cell-based or functional assay; remark: listed apart in the source
[4] = biological target: T1, recombinant human TFPI (tissue factor …); experiment: cell-based or functional assay; remark: listed apart in the source
[5] = biological target: T1, recombinant human TFPI (tissue factor …); experiment: cell-based or functional assay; remark: listed apart in the source
[6] = biological target: T1, recombinant human TFPI (tissue factor …); experiment: cell-based or functional assay; remark: listed apart in the source
[7] = biological target: T1, recombinant human TFPI (tissue factor …); experiment: cell-based or functional assay; remark: listed apart in the source
[8] = biological target: T1, recombinant human TFPI (tissue factor …); experiment: cell-based or functional assay; remark: listed apart in the source
[9] = biological target: T1, recombinant human TFPI (tissue factor …); experiment: cell-based or functional assay; remark: listed apart in the source
[10] = biological target: T1, recombinant human TFPI (tissue factor …); experiment: SPR, Biacore T-200; IgG captured on protein A (CM5), TFPI as analyte
Procedure: Dissociation of the TFPI associated with the antibody was induced by running 10 mM glycine-HCl (pH 1.5) at a flow rate for 30 seconds. The affinities in terms of kinetic rate constants (Kₒₙ and Koff) and equilibrium dissociation constant (KD) were evaluated using Biacore T-200 evaluation software, and the results are shown in Table 24 below.

B1: clone 1023 (antibody, V domains shown)
VH: EVQLVESGGGLVKPGGSLRLSCAASGFTFSSYAMNWVRQAPGKGLEWVGTITTGGSYTYYADSVDGRFTISRDNAKNSLYLQMNSLRAEDTAVYYCARQDGNFLMDYWGQGTLVTVSS
VL: DVVMTQTPLSLPVTLGQPASISCKSSQSLLDIDGKTYLNWLQQRPGQSPKRLIYLVSKLDSGVPDRFTGSGSGTDFTLKISRVEAEDVGVYYCWQGTHFPFTFGQGTKVEIKR
notes: scFv on yeast at selection; human IgG4/kappa IgG as purified
- % of Normalized, TF/FVIIa/FX complex assay, Ab 3.13 nM [1]: 6%
- % of Normalized, TF/FVIIa/FX complex assay, Ab 6.25 nM [1]: 8.3%
- % of Normalized, TF/FVIIa/FX complex assay, Ab 12.5 nM [1]: 10.3%
- % of Normalized, TF/FVIIa/FX complex assay, Ab 25 nM [1]: 43.7%
- % of Normalized, TF/FVIIa/FX complex assay, Ab 50 nM [1]: 80.3%
- % of Normalized, TF/FVIIa/FX complex assay, Ab 100 nM [1]: 99.8%
- FXa assay % of FXa alone, 2.5 nM Ab, 10 nM TFPI [2]: 8.4%
- FXa assay % of FXa alone, 5 nM Ab, 10 nM TFPI [2]: 40.8%
- FXa assay OD, 2.5 nM Ab, 10 nM TFPI [2]: 0.0605
- FXa assay OD, 5 nM Ab, 10 nM TFPI [2]: 0.293
- FXa assay OD, 10 nM Ab, 10 nM TFPI [2]: 0.605
- FXa assay % of FXa alone, 2.5 nM Ab, 10 nM TFPI [3]: 8.7%
- FXa assay % of FXa alone, 5 nM Ab, 10 nM TFPI [3]: 47.3%
- FXa assay % of FXa alone, 10 nM Ab, 10 nM TFPI [3]: 89.6%
- FXa assay % of FXa alone, 20 nM Ab, 10 nM TFPI [3]: 101%
- FXa assay OD, 2.5 nM Ab, 10 nM TFPI [3]: 0.042
- FXa assay OD, 5 nM Ab, 10 nM TFPI [3]: 0.229
- FXa assay OD, 10 nM Ab, 10 nM TFPI [3]: 0.433
- FXa assay OD, 20 nM Ab, 10 nM TFPI [3]: 0.488
- FXa assay % of FXa alone, 2.5 nM Ab, 10 nM TFPI [4]: 8.9%
- FXa assay % of FXa alone, 5 nM Ab, 10 nM TFPI [4]: 63.1%
- FXa assay % of FXa alone, 10 nM Ab, 10 nM TFPI [4]: 85.3%
- FXa assay % of FXa alone, 20 nM Ab, 10 nM TFPI [4]: 88.5%
- FXa assay OD, 2.5 nM Ab, 10 nM TFPI [4]: 0.0715
- FXa assay OD, 5 nM Ab, 10 nM TFPI [4]: 0.509
- FXa assay OD, 10 nM Ab, 10 nM TFPI [4]: 0.688
- FXa assay OD, 20 nM Ab, 10 nM TFPI [4]: 0.714
- FXa assay % of FXa alone, 2.5 nM Ab, 10 nM TFPI [5]: 7.9%
- FXa assay % of FXa alone, 5 nM Ab, 10 nM TFPI [5]: 37.7%
- FXa assay % of FXa alone, 10 nM Ab, 10 nM TFPI [5]: 84.3%
- FXa assay % of FXa alone, 20 nM Ab, 10 nM TFPI [5]: 91.7%
- FXa assay OD, 2.5 nM Ab, 10 nM TFPI [5]: 0.064
- FXa assay OD, 5 nM Ab, 10 nM TFPI [5]: 0.306
- FXa assay OD, 10 nM Ab, 10 nM TFPI [5]: 0.684
- FXa assay OD, 20 nM Ab, 10 nM TFPI [5]: 0.745
- FXa assay % of FXa alone, 2.5 nM Ab, 10 nM TFPI [6]: 6.7%
- FXa assay % of FXa alone, 5 nM Ab, 10 nM TFPI [6]: 26.6%
- FXa assay % of FXa alone, 10 nM Ab, 10 nM TFPI [6]: 82.3%
- FXa assay % of FXa alone, 20 nM Ab, 10 nM TFPI [6]: 84%
- FXa assay OD, 2.5 nM Ab, 10 nM TFPI [6]: 0.051
- FXa assay OD, 5 nM Ab, 10 nM TFPI [6]: 0.203
- FXa assay OD, 10 nM Ab, 10 nM TFPI [6]: 0.626
- FXa assay OD, 20 nM Ab, 10 nM TFPI [6]: 0.639
- FXa assay % of FXa alone, 2.5 nM Ab, 10 nM TFPI [7]: 5.2%
- FXa assay % of FXa alone, 5 nM Ab, 10 nM TFPI [7]: 8%
- FXa assay % of FXa alone, 10 nM Ab, 10 nM TFPI [7]: 52.7%
- FXa assay % of FXa alone, 20 nM Ab, 10 nM TFPI [7]: 78.4%
- FXa assay OD, 2.5 nM Ab, 10 nM TFPI [7]: 0.045
- FXa assay OD, 5 nM Ab, 10 nM TFPI [7]: 0.0695
- FXa assay OD, 10 nM Ab, 10 nM TFPI [7]: 0.459
- FXa assay OD, 20 nM Ab, 10 nM TFPI [7]: 0.682
- FXa assay % of FXa alone, 2.5 nM Ab, 10 nM TFPI [8]: 8.1%
- FXa assay % of FXa alone, 5 nM Ab, 10 nM TFPI [8]: 16.2%
- FXa assay % of FXa alone, 10 nM Ab, 10 nM TFPI [8]: 80.9%
- FXa assay % of FXa alone, 20 nM Ab, 10 nM TFPI [8]: 92.8%
- FXa assay OD, 2.5 nM Ab, 10 nM TFPI [8]: 0.096
- FXa assay OD, 5 nM Ab, 10 nM TFPI [8]: 0.193
- FXa assay OD, 10 nM Ab, 10 nM TFPI [8]: 0.963
- FXa assay OD, 20 nM Ab, 10 nM TFPI [8]: 1.1
- FXa assay % of FXa alone, 2.5 nM Ab, 10 nM TFPI [9]: 7.3%
- FXa assay % of FXa alone, 5 nM Ab, 10 nM TFPI [9]: 25.2%
- FXa assay % of FXa alone, 10 nM Ab, 10 nM TFPI [9]: 83.6%
- FXa assay % of FXa alone, 20 nM Ab, 10 nM TFPI [9]: 85.5%
- FXa assay OD, 2.5 nM Ab, 10 nM TFPI [9]: 0.06
- FXa assay OD, 5 nM Ab, 10 nM TFPI [9]: 0.208
- FXa assay OD, 10 nM Ab, 10 nM TFPI [9]: 0.691
- FXa assay OD, 20 nM Ab, 10 nM TFPI [9]: 0.707
- Kd [10]: 0.0301 nM

Source: patent US20180030151A1 (MOGAM INSTITUTE FOR BIOMEDICAL RESEARCH, published 2018)
